From patent US20060073152A1 (Genentech, published 2006) come the findings set out here.

Read-outs that look alike come from different tables or passages of the source. Positions of bridges follow the written chain, without caps; N, C: chain ends. No end group written: not given here.

As usually defined, the IC50 is the concentration at which inhibition is half-maximal. A high value points to weaker potency. By Kd is commonly meant the concentration at which binding is half-saturated.

Assay [1] deals with T1, mouse serum albumin (mouse, UniProt P07724 25-608).
T1 construct: also called Mouse SA; MuSA
Description: SA08 peptide competition.

Assay [2] has as its target T2, rabbit serum albumin (rabbit, UniProt P49065 25-608).
T2 construct: also called Rabbit SA; BuSA
Kind of assay: SA08 peptide competition.

Assay [3] concerns the target T2, rabbit serum albumin. Kind of assay: peptide competition; head prints RSA, read as rabbit.
In assay [4] the target is T2, rabbit serum albumin. Kind of assay: SPR (BIAcore), albumin on the chip. (In SPR one partner is held on a chip, and binding of the other changes the refractive index at the surface.)
The target in assay [5] is T3, rat serum albumin (rat, UniProt P02770 25-608).
T3 construct: also called Rat SA; RSA
Description: phage binding.

Assay [6] has as its target T2, rabbit serum albumin. Description: phage binding.
Assay [7] has as its target T4, human serum albumin (human, UniProt P02768 25-609).
T4 construct: also called Human SA; HuSA
Description: phage binding.

Assay [8] addresses T3, rat serum albumin. Kind of assay: peptide competition for albumin.
The target of assay [9] is T1, mouse serum albumin. Kind of assay: peptide competition for albumin.
In assay [10] the target is T2, rabbit serum albumin. Description: peptide competition for albumin.
For assay [11], the target named is T3, rat serum albumin. Description: phage binding. This is another data set of the same source.
Assay [12] concerns the target T4, human serum albumin. Kind of assay: phage binding. The source holds these as a separate data set.
The target of assay [13] is T2, rabbit serum albumin. Kind of assay: phage binding. This is another data set of the same source.
In assay [14] the target is T3, rat serum albumin. Description: SPR (BIAcore), albumin on the chip.
Assay [15] addresses T4, human serum albumin. Description: SPR (BIAcore), albumin on the chip.

T1 sequence (P07724 25-608 limits assumed): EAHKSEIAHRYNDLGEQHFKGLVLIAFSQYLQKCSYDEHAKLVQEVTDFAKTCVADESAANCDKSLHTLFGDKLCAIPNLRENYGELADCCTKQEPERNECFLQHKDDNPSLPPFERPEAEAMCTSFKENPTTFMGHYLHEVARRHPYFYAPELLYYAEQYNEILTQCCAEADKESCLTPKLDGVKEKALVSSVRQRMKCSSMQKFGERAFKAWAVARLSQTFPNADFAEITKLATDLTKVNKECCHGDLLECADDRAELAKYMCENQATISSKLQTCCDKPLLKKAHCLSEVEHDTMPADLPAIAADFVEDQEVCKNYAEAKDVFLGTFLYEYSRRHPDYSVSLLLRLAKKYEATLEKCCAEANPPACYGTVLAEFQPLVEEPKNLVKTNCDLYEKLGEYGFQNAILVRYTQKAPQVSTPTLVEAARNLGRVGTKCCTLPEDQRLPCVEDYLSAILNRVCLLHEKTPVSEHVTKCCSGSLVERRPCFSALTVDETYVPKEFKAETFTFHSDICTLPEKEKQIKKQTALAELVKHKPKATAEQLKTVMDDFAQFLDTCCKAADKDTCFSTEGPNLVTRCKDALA
T2 sequence (P49065 25-608 limits assumed): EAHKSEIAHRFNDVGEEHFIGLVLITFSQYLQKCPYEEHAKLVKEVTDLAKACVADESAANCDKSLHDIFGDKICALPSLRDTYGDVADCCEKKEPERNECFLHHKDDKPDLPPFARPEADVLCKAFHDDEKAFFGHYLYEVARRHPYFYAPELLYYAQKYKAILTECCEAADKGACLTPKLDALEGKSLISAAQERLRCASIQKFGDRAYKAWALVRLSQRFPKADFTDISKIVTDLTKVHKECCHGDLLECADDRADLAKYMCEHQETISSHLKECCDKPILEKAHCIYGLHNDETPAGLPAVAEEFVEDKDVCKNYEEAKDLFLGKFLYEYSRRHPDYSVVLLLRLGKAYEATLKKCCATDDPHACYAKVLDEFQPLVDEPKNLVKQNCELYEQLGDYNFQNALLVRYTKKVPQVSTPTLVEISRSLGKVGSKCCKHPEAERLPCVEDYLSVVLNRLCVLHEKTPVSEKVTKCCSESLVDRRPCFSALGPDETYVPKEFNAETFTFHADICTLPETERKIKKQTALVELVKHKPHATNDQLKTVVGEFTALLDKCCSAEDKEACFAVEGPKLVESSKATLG
T3 sequence (P02770 25-608 limits assumed): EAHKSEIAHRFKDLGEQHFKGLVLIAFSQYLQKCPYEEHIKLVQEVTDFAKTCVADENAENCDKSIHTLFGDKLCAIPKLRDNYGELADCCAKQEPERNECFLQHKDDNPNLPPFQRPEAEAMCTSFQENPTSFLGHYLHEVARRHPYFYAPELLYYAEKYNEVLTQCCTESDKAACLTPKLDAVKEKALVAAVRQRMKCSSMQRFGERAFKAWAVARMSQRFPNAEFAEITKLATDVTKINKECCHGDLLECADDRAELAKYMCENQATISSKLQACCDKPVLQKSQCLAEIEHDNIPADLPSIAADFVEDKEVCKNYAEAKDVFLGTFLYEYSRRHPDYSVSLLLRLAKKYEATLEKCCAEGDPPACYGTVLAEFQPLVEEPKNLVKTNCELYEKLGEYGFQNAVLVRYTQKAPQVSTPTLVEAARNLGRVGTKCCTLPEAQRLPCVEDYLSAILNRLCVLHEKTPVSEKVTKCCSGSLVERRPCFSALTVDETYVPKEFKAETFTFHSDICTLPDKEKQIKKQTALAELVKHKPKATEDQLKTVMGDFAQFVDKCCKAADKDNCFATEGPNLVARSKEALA

B1: SA21 (peptide)
peptide: Ac-RLIEDICLPRWGCLWEDD-NH2
modifications: cysteine pairing not given here
notes: free peptide
Consider B1, for which the IC50 came to 7 nM in the assay with mouse serum albumin [1], 270 nM with rabbit serum albumin [2] and 270 nM in the assay with rabbit serum albumin [3]. Also, in the assay with rabbit serum albumin [4], the Kd stood at 320 nM.

B2: RD (peptide)
peptide: DTCVDLVRLGLECWG
notes: on phage; also called Library RD
Take B2: the binding result with rat serum albumin [5] is recorded as “binds”.

B3: BB (peptide)
peptide: MDELAFYCGIWECLMHQEQK
notes: on phage
Consider B3, for which the binding result with rabbit serum albumin [6] is recorded as “binds”.

B4: RC (peptide)
peptide: DLCLRDWGCLW
notes: on phage; also called Library RC
Turning to B4, in the assay with rat serum albumin [5], the binding result is listed as “binds”.

B5: RA (peptide)
peptide: RNEDPCVVLLEMGLECWEGV
modifications: not fully specified (bridges); cysteine pairing not given here; also: phage-displayed
notes: on phage
Regarding B5, the binding result in the assay with rat serum albumin [5] is “binds”.

B6: HA (peptide)
peptide: EVRSFCTDWPAEKSCKPLRG
notes: on phage; also called Library HA
In the case of B6, the binding result in the assay with human serum albumin [7] is “binds”.

B7: SA04 (peptide)
peptide: DICLPRWGCLW-NH2
modifications: not fully specified (bridges); cysteine pairing not given here
notes: free peptide
Take B7: the IC50 with rat serum albumin [8] is 787 nM; with mouse serum albumin [9], 40 nM; with rabbit serum albumin [10] it was 8540 nM; with rabbit serum albumin [3] it was 8540 nM.

B8: SA12 (peptide)
peptide: Ac-MEDICLPRWGCLWED-NH2
modifications: not fully specified (bridges); cysteine pairing not given here
notes: free peptide
Regarding B8, the IC50 with rat serum albumin [8] is 205 nM; with mouse serum albumin [9], 13 nM; in the assay with rabbit serum albumin [10] it was 1760 nM.

B9: SA09 (peptide)
peptide: Ac-EDICLPRWGCLWEDD-NH2
modifications: not fully specified (bridges); cysteine pairing not given here
notes: free peptide
Regarding B9, the half-maximal inhibitory concentration (IC50) with rat serum albumin [8] is 258 nM; with mouse serum albumin [9], 6 nM; with rabbit serum albumin [10], 1690 nM.

B10: BA (peptide)
peptide: GENWCDSTLMAYDLCGQVNM
notes: on phage; also called Library BA
Turning to B10, the binding result in the assay with rabbit serum albumin [6] was “binds”.

B11: SA05 (peptide)
peptide: MEDICLPRWGCLWED-NH2
modifications: not fully specified (bridges); cysteine pairing not given here
notes: free peptide
In the case of B11, the IC50 in the assay with rat serum albumin [8] is 161 nM; in the assay with mouse serum albumin [9], 6 nM; with rabbit serum albumin [10], 804 nM.

B12: BC (peptide)
peptide: DLCDVDFCWF
notes: on phage
For the molecule B12, the binding result with rabbit serum albumin [6] is listed as “binds”.

B13: RB-B11 (peptide)
peptide: QWQVMDICLPRWGCLWADEY
modifications: not fully specified (bridges); cysteine pairing not given here; also: phage-displayed
notes: on phage
For the molecule B13, the binding result with rat serum albumin [11], with human serum albumin [12] and in the assay with rabbit serum albumin [13] was “binds” throughout.

B14: SA15 (peptide)
peptide: GEWWEDICLPRWGCLWEEED-NH2
modifications: not fully specified (bridges); printed as GEWWEDICLPRWGCLWEEED-NH2; cysteine pairing not given here
notes: free peptide
As to B14, the 50% inhibitory concentration (IC50) came to 5 nM with mouse serum albumin [1] and 13 nM with rabbit serum albumin [2]. Also, the Kd with rat serum albumin [14] is 150 nM; with human serum albumin [15], 878 nM; with rabbit serum albumin [4], 65 nM.

B15: SA06 (peptide)
peptide: QRLMEDICLPRWGCLWEDDF-NH2
modifications: disulfide 8-14 (inferred)
Take B15: the concentration for half-maximal inhibition (IC50) in the assay with rat serum albumin [8] turned out to be 68 nM; in the assay with mouse serum albumin [9], 8 nM; with rabbit serum albumin [10] it was 128 nM.

B16: SA08 (peptide)
peptide: Ac-QGLIGDICLPRWGCLWGDSVK-NH2
modifications: cysteine pairing not given here
notes: free peptide
In the case of B16, the IC50 in the assay with mouse serum albumin [1] was 12 nM; in the assay with rat serum albumin [8], 68 nM; with mouse serum albumin [9] it was 10 nM; in the assay with rabbit serum albumin [10], 63 nM. In addition, the Kd with rat serum albumin [14] amounted to 158 nM; with human serum albumin [15], 858 nM; in the assay with rabbit serum albumin [4], 108 nM.

B17: RE (peptide)
peptide: CGCVDVSDWDCWSECLWSHGA
notes: on phage
In the case of B17, in the assay with rat serum albumin [5], the binding result is recorded as “binds”.

B18: SA11 (peptide)
peptide: Ac-MEDICLPRWGCLWEDD-NH2
modifications: not fully specified (bridges); cysteine pairing not given here
notes: free peptide
Regarding B18, the figures for the IC50 with rat serum albumin [8], in the assay with mouse serum albumin [9] and with rabbit serum albumin [10] were 232 nM, 17 nM and 1210 nM, respectively.

B19: BD (peptide)
peptide: KSCSELHWLLVEECLF
modifications: not fully specified (bridges); cysteine pairing not given here
notes: on phage
On to B19, for which the binding result in the assay with rabbit serum albumin [6] is on record as “binds”.

B20: HB (peptide)
peptide: RAPESFVCYWETICFERSEQ
notes: on phage; also called Library HB
On to B20, for which, in the assay with human serum albumin [7], the binding result is on record as “binds”.

B21: SA07 (peptide)
peptide: QGLIGDICLPRWGCLWGDSV-NH2
modifications: not fully specified (bridges); cysteine pairing not given here
notes: free peptide
Take B21: the values for the concentration for half-maximal inhibition (IC50) with rat serum albumin [8], in the assay with mouse serum albumin [9] and with rabbit serum albumin [10] were 35 nM, 6 nM and 30 nM, respectively.

B22: HC (peptide)
peptide: EMCYFPGICWM
notes: on phage; also called Library HC
For the molecule B22, the binding result in the assay with rat serum albumin [5] and in the assay with human serum albumin [7] was “binds” in each case.

B23: RB (peptide)
peptide: QRQMVDFCLPQWGCLWGDGF
notes: on phage; also called Library RB
As to B23, the binding result with rat serum albumin [5], in the assay with human serum albumin [7] and with rabbit serum albumin [6] was “binds” each time.
